B1: Full-length human His6-Kif15 (natural protein, UniProt Q9NS87 1-1388, looked up)
chain: MAPGCKTELRSVTNGQSNQPSNEGDAIKVFVRIRPPAERSGSADGEQNLCLSVLSSTSLRLHSNPEPKTFTFDHVADVDTTQESVFATVAKSIVESCMSGYNGTIFAYGQTGSGKTFTMMGPSESDNFSHNLRGVIPRSFEYLFSLIDREKEKAGAGKSFLCKCSFIEIYNEQIYDLLDSASAGLYLREHIKKGVFVVGAVEQVVTSAAEAYQVLSGGWRNRRVASTSMNRESSRSHAVFTITIESMEKSNEIVNIRTSLLNLVDLAGSERQKDTHAEGMRLKEAGNINRSLSCLGQVITALVDVGNGKQRHVCYRDSKLTFLLRDSLGGNAKTAIIANVHPGSRCFGETLSTLNFAQRAKLIKNKAVVNEDTQGNVSQLQAEVKRLKEQLAELASGQTPPESFLTRDKKKTNYMEYFQEAMLFFKKSEQEKKSLIEKVTQLEDLTLKKEKFIQSNKMIVKFREDQIIRLEKLHKESRGGFLPEEQDRLLSELRNEIQTLREQIEHHPRVAKYAMENHSLREENRRLRLLEPVKRAQEMDAQTIAKLEKAFSEISGMEKSDKNQQGFSPKAQKEPCLFANTEKLKAQLLQIQTELNNSKQEYEEFKELTRKRQLELESELQSLQKANLNLENLLEATKACKRQEVSQLNKIHAETLKIITTPTKAYQLHSRPVPKLSPEMGSFGSLYTQNSSILDNDILNEPVPPEMNEQAFEAISEELRTVQEQMSALQAKLDEEEHKNLKLQQHVDKLEHHSTQMQELFSSERIDWTKQQEELLSQLNVLEKQLQETQTKNDFLKSEVHDLRVVLHSADKELSSVKLEYSSFKTNQEKEFNKLSERHMHVQLQLDNLRLENEKLLESKACLQDSYDNLQEIMKFEIDQLSRNLQNFKKENETLKSDLNNLMELLEAEKERNNKLSLQFEEDKENSSKEILKVLEAVRQEKQKETAKCEQQMAKVQKLEESLLATEKVISSLEKSRDSDKKVVADLMNQIQELRTSVCEKTETIDTLKQELKDINCKYNSALVDREESRVLIKKQEVDILDLKETLRLRILSEDIERDMLCEDLAHATEQLNMLTEASKKHSGLLQSAQEELTKKEALIQELQHKLNQKKEEVEQKKNEYNFKMRQLEHVMDSAAEDPQSPKTPPHFQTHLAKLLETQEQEIEDGRASKTSLEHLVTKLNEDREVKNAEILRMKEQLREMENLRLESQQLIEKNWLLQGQLDDIKRQKENSDQNHPDNQQLKNEQEESIKERLAKSKIVEEMLKMKADLEEVQSALYNKEMECLRMTDEVERTQTLESKAFQEKEQLRSKLEEMYEERERTSQEMEMLRKQVECLAEENGKLVGHQNLHQKIQYVVRLKKENVRLAEETEKLRAENVFLKEKKRSES
notes: Kinesin-12 Kif15 (hKlp2), human; complete ORF amplified from a cDNA library of hTERT-RPE1 cells; predicted molecular weight of His6-hKif15 164.8 kDa; A TEV cleavage site lies between His6 and the ORF (His6/TEV element of p11 in a modified pIEx/Bac1 vector); no cleavage is described; Tetramer at physiological ionic strength, dimer at 300 mM NaCl; also called hKif15; His6-hKif15; source: insect SF9 …
B2: Full-length human His6-Kif15-eGFP (natural protein, UniProt Q9NS87 1-1388, looked up)
chain: B1 chain
notes: Kinesin-12 Kif15 (hKlp2), human; complete ORF from a cDNA library of hTERT-RPE1 cells, eGFP inserted via AscI/NotI behind the ORF; His6/TEV element before the ORF as in m1; also called hKif15-eGFP; His6-hKif15-eGFP; source: insect SF9 cells (baculovirus), purified (SP-sepharose cation exchange, then Talon/Co-NTA); not shown: His6, N-terminal, kept; eGFP, C-terminal, kept

Key:
[1] = target: the molecule itself; assay: native gel or EMSA; 4-16% Native-PAGE gel stained with coomassie
[2] = target: the molecule itself; assay: glycerol gradient ultracentrifugation; 5-40% glycerol gradient, 35 mM sodium phosphate buffer, 300 mM NaCl, 1 mM DTT, 4°C, 15 hr; tetramer to dimers
[3] = target: taxol-stabilised microtubules; assay: co-sedimentation; microtubule sedimentation, 15 nM tetrameric hKif15 with 30 nM dimeric hTpx2, AMP-PNP, 35 mM sodium phosphate buffer pH 7.0, 1 mM MgCl2, 1 mM EGTA, 1 mM DTT, 20 min at room temperature; details: both partners purified
Chain of taxol-stabilised microtubules (chain, as listed by the source, chain 1 of 2): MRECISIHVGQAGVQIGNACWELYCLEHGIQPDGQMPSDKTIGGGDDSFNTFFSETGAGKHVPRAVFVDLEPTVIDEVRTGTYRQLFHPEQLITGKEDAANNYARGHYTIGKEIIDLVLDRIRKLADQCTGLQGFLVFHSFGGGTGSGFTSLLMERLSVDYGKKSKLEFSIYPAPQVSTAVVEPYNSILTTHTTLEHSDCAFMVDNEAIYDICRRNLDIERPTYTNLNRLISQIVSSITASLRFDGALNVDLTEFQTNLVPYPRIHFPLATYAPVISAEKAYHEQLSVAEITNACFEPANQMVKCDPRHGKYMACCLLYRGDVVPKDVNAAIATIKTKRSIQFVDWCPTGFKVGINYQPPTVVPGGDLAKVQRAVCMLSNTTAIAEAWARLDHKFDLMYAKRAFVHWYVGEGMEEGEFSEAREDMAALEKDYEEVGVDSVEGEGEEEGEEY
Chain of taxol-stabilised microtubules (chain, as listed by the source, chain 2 of 2): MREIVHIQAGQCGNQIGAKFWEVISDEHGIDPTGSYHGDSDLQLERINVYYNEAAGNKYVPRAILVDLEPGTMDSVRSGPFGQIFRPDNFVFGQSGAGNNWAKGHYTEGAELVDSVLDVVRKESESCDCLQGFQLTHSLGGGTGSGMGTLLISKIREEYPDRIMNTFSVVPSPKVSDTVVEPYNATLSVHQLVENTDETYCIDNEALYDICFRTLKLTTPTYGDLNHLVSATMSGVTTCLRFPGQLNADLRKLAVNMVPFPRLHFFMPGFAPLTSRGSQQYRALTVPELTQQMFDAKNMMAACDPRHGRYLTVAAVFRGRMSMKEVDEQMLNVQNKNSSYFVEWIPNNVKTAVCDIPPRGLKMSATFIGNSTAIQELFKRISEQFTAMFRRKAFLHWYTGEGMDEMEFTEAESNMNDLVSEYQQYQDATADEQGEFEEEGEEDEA

[4] = target: the molecule itself; assay: glycerol gradient ultracentrifugation; 5-40% glycerol gradient, 35 mM sodium phosphate buffer, 0-150 mM NaCl, 1 mM DTT, 4°C, 15 hr; apparent sedimentation coefficients

Binder | stoichiometry N [1] | stoichiometry N [2] | KD with 30 nM dimeric hTpx2 [3] [nM] | stoichiometry N [4]
B1 | 4 | 2 | 490 | 
B2 |  |  |  | 4
